# Test results taken from IntAct's records for PubMed 26040717.
# B1: Autophagy-related protein 8 (Saccharomyces cerevisiae), P38182 (parent)
# chain: MKSTFKSEYPFEKRKAESERIADRFKNRIPVICEKAEKSDIPEIDKRKYLVPADLTVGQFVYVIRKRIMLPPEKAIFIFVNDTLPPTAALMSAIYQEHKDKDGFLYVTYSGENTFGR
# partner: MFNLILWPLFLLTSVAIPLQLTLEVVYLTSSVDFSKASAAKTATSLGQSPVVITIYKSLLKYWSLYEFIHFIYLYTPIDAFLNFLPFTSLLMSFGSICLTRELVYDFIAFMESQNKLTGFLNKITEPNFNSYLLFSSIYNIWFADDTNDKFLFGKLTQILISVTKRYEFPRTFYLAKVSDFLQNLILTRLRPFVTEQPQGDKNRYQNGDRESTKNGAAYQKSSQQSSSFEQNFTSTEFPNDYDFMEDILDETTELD
# B2: Autophagy-related protein 40 (Saccharomyces cerevisiae), Q99325 (parent)
# chain: B1 partner
# partner: B1 chain
# B3: Autophagy-related protein 39 (Saccharomyces cerevisiae), Q06159 (parent)
# chain: MSEEDDHWNLVRLRRLRKGREGEEQSSKSEISLDSLHESSFAGEDDEDFDADVLSNTSSEESAQMNRIYDFRTSNEFSNAGVNIDQTGVPTISESFDTLSGSNVGGTVLPSMEGSKLKDSTIRNSSTLSDHIIDKSEGKSAKLKMWHVIMLSSLLSMTFSYLALEYSLTGDVLAGFKSQQSLRNNERKLLYGNIDFVDKKSYDSSSDSLSQWAPSGKYYVDFDNHIAYPLKDDDLMGWRRYKTDLVILWYTTKARMKDGWHKRINKINGGRIKLHLFLKNSFKSAQESLRVLHKEQKRRWKRLFVLLHNKYRQFSPHIKRYFDHSCQKAKQCWSGSRLQLRKLRFKSMKPFRVFQFKVRKDTNWFVKQLKRFGLKLQHSRMYKAMSECRKKNYFKCKH
# partner: B1 chain
# B4: Autophagy-related protein 39 (Saccharomyces cerevisiae), Q06159 (parent)
# chain: B3 chain
# partner: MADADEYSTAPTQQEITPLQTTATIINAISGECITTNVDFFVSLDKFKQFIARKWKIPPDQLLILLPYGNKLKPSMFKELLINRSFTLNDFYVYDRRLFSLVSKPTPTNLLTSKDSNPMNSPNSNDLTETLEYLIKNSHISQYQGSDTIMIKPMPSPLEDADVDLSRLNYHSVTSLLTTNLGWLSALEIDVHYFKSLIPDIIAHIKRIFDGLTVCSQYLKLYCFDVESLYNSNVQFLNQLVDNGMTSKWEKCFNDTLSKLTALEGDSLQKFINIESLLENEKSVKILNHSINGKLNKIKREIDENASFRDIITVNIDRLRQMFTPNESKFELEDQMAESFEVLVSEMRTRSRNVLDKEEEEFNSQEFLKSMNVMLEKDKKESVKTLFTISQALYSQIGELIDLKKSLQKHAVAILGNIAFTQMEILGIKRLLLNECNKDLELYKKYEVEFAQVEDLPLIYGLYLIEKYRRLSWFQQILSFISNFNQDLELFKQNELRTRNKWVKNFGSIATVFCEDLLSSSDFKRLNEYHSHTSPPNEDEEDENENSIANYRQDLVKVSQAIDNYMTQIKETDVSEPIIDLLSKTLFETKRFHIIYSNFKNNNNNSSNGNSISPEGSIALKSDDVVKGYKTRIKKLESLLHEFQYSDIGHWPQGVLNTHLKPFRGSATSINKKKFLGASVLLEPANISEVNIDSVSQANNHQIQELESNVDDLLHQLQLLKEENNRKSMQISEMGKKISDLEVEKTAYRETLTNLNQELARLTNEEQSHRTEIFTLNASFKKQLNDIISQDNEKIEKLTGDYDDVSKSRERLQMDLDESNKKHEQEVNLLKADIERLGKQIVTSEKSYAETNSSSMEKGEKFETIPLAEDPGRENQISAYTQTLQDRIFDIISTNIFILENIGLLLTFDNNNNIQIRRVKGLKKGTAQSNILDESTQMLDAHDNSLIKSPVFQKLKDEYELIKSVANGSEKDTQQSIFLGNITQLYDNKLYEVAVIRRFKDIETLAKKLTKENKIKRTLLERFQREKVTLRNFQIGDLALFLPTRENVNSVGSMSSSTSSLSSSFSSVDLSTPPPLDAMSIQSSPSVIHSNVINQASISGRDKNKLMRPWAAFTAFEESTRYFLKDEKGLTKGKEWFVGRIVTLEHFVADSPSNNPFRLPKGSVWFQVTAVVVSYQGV
# B5: Autophagy-related protein 8 (Saccharomyces cerevisiae), P38182 (parent)
# chain: B1 chain
# partner: B3 chain
# Variants of: B1
# Details: with atg40_yeast ATG40, Q99325
row,effect of a mutation on the interaction,Variant
1,disrupting interaction strength,MKSTFKSEYPFEKRKAESERIADRFKNRIPVICEKAEKSDIPEIDKRKYLVAADLTVGQFVYVIRKAIMLPPEKAIFIFVNDTLPPTAALMSAIYQEHKDKDGFLYVTYSGENTFGR [P52A;R67A]

# Variants of: B2
# Details: with atg8_yeast ATG8, P38182
row,effect of a mutation on the interaction,Variant
1,disrupting interaction strength,MFNLILWPLFLLTSVAIPLQLTLEVVYLTSSVDFSKASAAKTATSLGQSPVVITIYKSLLKYWSLYEFIHFIYLYTPIDAFLNFLPFTSLLMSFGSICLTRELVYDFIAFMESQNKLTGFLNKITEPNFNSYLLFSSIYNIWFADDTNDKFLFGKLTQILISVTKRYEFPRTFYLAKVSDFLQNLILTRLRPFVTEQPQGDKNRYQNGDRESTKNGAAYQKSSQQSSSFEQNFTSTEFPNDADFAEDILDETTELD [Y242A;M245A]

# Variants of: B3
# Details: with atg8_yeast ATG8, P38182
row,effect of a mutation on the interaction,Variant
1,disrupting interaction strength,MSEEDDHANLARLRRLRKGREGEEQSSKSEISLDSLHESSFAGEDDEDFDADVLSNTSSEESAQMNRIYDFRTSNEFSNAGVNIDQTGVPTISESFDTLSGSNVGGTVLPSMEGSKLKDSTIRNSSTLSDHIIDKSEGKSAKLKMWHVIMLSSLLSMTFSYLALEYSLTGDVLAGFKSQQSLRNNERKLLYGNIDFVDKKSYDSSSDSLSQWAPSGKYYVDFDNHIAYPLKDDDLMGWRRYKTDLVILWYTTKARMKDGWHKRINKINGGRIKLHLFLKNSFKSAQESLRVLHKEQKRRWKRLFVLLHNKYRQFSPHIKRYFDHSCQKAKQCWSGSRLQLRKLRFKSMKPFRVFQFKVRKDTNWFVKQLKRFGLKLQHSRMYKAMSECRKKNYFKCKH [W8A;V11A]

# Variants of: B4
# Details: with atg11_yeast ATG11, Q12527
row,effect of a mutation on the interaction,Variant
1,disrupting interaction strength,MSEEDDHWNLVRLRRLRKGREGEEQSSKSEISLDSLHESSFAGEDDEDFDAAAAAAAAAEESAQMNRIYDFRTSNEFSNAGVNIDQTGVPTISESFDTLSGSNVGGTVLPSMEGSKLKDSTIRNSSTLSDHIIDKSEGKSAKLKMWHVIMLSSLLSMTFSYLALEYSLTGDVLAGFKSQQSLRNNERKLLYGNIDFVDKKSYDSSSDSLSQWAPSGKYYVDFDNHIAYPLKDDDLMGWRRYKTDLVILWYTTKARMKDGWHKRINKINGGRIKLHLFLKNSFKSAQESLRVLHKEQKRRWKRLFVLLHNKYRQFSPHIKRYFDHSCQKAKQCWSGSRLQLRKLRFKSMKPFRVFQFKVRKDTNWFVKQLKRFGLKLQHSRMYKAMSECRKKNYFKCKH [D52A;V53A;L54A;S55A;N56A;T57A;S58A;S59A]

# Variants of: B5
# Details: with atg39_yeast ATG39, Q06159
row,effect of a mutation on the interaction,Variant
1,disrupting interaction strength,MKSTFKSEYPFEKRKAESERIADRFKNRIPVICEKAEKSDIPEIDKRKYLVAADLTVGQFVYVIRKAIMLPPEKAIFIFVNDTLPPTAALMSAIYQEHKDKDGFLYVTYSGENTFGR [P52A;R67A]

# Variants of: B5
# Details: with atg39_yeast ATG39, Q06159
# Remark: another data set of the same source
row,effect of a mutation on the interaction,Variant
1,decreasing interaction strength,MKSTFKSEYPFEKRKAESERIADRFKNRIPVICEKAEKSDIPEIDKRKYLVAADLTVGQFVYVIRKAIMLPPEKAIFIFVNDTLPPTAALMSAIYQEHKDKDGFLYVTYSGENTFGR [P52A;R67A]
